In general, Kd refers to the constant that tells how readily two partners part at equilibrium. Read a high Kd as a looser complex.

The source of these data is publication PMC8693953 (Molecular Biology of the Cell, 2021).

The target of the test is proline-rich tyrosine kinase 2 (Pyk2) (UniProt Q14289 1-1009). Briefly: pull-down.
proline-rich tyrosine kinase 2 (Pyk2), sequence (Q14289 whole entry): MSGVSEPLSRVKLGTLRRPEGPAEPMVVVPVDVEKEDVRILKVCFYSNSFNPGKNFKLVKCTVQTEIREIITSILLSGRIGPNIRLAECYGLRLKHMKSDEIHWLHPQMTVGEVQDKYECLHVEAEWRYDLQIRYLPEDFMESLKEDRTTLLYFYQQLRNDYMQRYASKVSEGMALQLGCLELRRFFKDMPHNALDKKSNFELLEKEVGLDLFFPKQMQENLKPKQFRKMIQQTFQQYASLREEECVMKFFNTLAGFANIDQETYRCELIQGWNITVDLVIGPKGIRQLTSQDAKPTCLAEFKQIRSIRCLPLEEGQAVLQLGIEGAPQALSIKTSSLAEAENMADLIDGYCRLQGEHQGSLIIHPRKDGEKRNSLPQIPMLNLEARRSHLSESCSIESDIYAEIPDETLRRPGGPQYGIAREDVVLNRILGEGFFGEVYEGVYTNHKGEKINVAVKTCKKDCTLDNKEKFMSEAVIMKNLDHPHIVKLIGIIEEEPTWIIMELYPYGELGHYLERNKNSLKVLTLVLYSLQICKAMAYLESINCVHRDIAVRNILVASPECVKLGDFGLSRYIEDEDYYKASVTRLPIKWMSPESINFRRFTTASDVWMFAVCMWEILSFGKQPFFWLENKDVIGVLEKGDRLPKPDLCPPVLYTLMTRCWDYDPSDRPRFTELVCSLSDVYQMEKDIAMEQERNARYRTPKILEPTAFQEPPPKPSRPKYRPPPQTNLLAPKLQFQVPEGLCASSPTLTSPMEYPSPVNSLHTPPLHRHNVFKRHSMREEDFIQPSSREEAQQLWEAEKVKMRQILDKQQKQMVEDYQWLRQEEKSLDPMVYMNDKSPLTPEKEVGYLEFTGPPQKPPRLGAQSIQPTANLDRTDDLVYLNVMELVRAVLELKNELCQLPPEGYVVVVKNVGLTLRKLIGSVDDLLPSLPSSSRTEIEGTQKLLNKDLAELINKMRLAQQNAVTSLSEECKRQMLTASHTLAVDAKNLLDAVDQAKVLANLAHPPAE

B1: GST-CrkII (recombinant chicken CrkII, wild type) (natural protein, UniProt Q04929 1-305, looked up)
chain: MAGQFDSEDRGSWYWGRLSRGDAVSLLQGQRHGTFLVRDSGSIPGDFVLSVSESSRVSHYIVNSLGPAGGRRAGGEGPGAPGLNPTRFRIGDQEFDSLPSLLEFYKIHYLDTTTLIEPVSRSRQNSGVILRQEEVEYVRALFDFNGNDDEDLPFKKGDILKIRDKPEEQWWNAEDMDGKRGMIPVPYVEKCRPSSASVSTLTGGNQDSSHPQPLGGPEPGPYAQPSINTPLPNLQNGPFYARVIQKRVPNAYDKTALALEVGELVKVTKINMSGQWEGECNGKRGHFPFTHVRLLDQQNPDEDFS
As to B1, binding was put at a Kd of 150 ± 30 nM.

B2: GST-CrkCSH3 (CrkII W276K, mutation at the C-terminal SH3 domain) (natural protein, chicken, UniProt Q04929 1-305, looked up)
chain: MAGQFDSEDRGSWYWGRLSRGDAVSLLQGQRHGTFLVRDSGSIPGDFVLSVSESSRVSHYIVNSLGPAGGRRAGGEGPGAPGLNPTRFRIGDQEFDSLPSLLEFYKIHYLDTTTLIEPVSRSRQNSGVILRQEEVEYVRALFDFNGNDDEDLPFKKGDILKIRDKPEEQWWNAEDMDGKRGMIPVPYVEKCRPSSASVSTLTGGNQDSSHPQPLGGPEPGPYAQPSINTPLPNLQNGPFYARVIQKRVPNAYDKTALALEVGELVKVTKINMSGQKEGECNGKRGHFPFTHVRLLDQQNPDEDFS
Consider B2, for which the Kd stood at 134 ± 34 nM.

B3: GST-CrkSH2 (CrkII R38K, mutation at the N-terminal SH2 domain) (natural protein, chicken, UniProt Q04929 1-305, looked up)
chain: MAGQFDSEDRGSWYWGRLSRGDAVSLLQGQRHGTFLVKDSGSIPGDFVLSVSESSRVSHYIVNSLGPAGGRRAGGEGPGAPGLNPTRFRIGDQEFDSLPSLLEFYKIHYLDTTTLIEPVSRSRQNSGVILRQEEVEYVRALFDFNGNDDEDLPFKKGDILKIRDKPEEQWWNAEDMDGKRGMIPVPYVEKCRPSSASVSTLTGGNQDSSHPQPLGGPEPGPYAQPSINTPLPNLQNGPFYARVIQKRVPNAYDKTALALEVGELVKVTKINMSGQWEGECNGKRGHFPFTHVRLLDQQNPDEDFS
The molecule B3 had a Kd of 508 ± 158 nM.
